Source: US20080019991A1 (CYTOS BIOTECHNOLOGY, published 2008)

Biological target: T1, recombinant human RANK-hFc fusion protein (human, UniProt Q9Y6Q6 30-212, limits assumed)
T1 construct: also called hRANK; not shown: human Fc (hFc)
T1 sequence (looked up): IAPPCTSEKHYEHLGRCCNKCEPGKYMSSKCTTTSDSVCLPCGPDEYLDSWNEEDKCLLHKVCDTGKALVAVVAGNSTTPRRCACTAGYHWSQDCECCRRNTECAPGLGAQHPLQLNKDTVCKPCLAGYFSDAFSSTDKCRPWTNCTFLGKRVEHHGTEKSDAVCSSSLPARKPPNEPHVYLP
Assay: ELISA, human RANKL coated at 10 µg/ml, anti-hFc-HRP detection
Method: To test whether the antibodies generated in mice have neutralizing activity, in vitro binding assays for both mouse and human RANKL and their cognate receptors mouse RANK and human RANK were established. ELISA plates were therefore coated with 10 μg/ml of either mouse or human RANKL protein and incubated with serial dilutions of a recombinant mouse RANK-hFc fusion protein or a recombinant human RANK-hFc fusion protein, respectively. Bound protein was detected with a horse raddish peroxidase conjugated anti-hFc antibody. […] ELISA plates were therefore coated with either mouse or human RANKL protein at a concentration of 10 μg/ml, and co-incubated with serial dilutions of a pool of mouse sera from day 35 and 0.35 nM mouse or human RANK-hFc fusion protein, respectively. Binding of receptor to immobilized RANKL protein was detected with horse raddish peroxidase conjugated anti-hFc antibody.

binding result: binds
B1: human RANKL protein (ligand, UniProt O14788 140-317, looked up)
chain: IRAEKAMVDGSWLDLAKRSKLEAQPFAHLTINATDIPSGSHKVSLSSWYHDRGWAKISNMTFSNGKLIVNQDGFYYLYANICFRHHETSGDLATEYLQLMVYVTKTSIKIPSSHTLMKGGSTKYWSGNSEFHFYSINVGGFFKLRSGEEISIEVSNPSLLDPDQDATYFGAFKVRDID
notes: Coated on ELISA plates; also called hRANKL
